Source: patent publication US20250382362A1 (UNIVERSIT TSKLINIKUM REGENSBURG, published 2025)

T1: human IL3 (human, UniProt P08700 20-152)
T1 sequence: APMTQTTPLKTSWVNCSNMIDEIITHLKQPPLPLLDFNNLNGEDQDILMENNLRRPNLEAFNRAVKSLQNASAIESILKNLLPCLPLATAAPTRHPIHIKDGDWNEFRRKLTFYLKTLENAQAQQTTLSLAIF

B1: HC3 × LC3 (antibody, V domains shown)
VH: QVQLVQSGAEMKKPGASVKVACKGSGFTFTDYALHWVRQAPGQRLEWMGLISTYYGDTTYNQRFKGRVTITRDTSASTAYMELSSLRSEDTAIYYCVITTVAGTDAMDYWGQGTLVTVSS
VL: DIQMTQSPSSLSASVGDRVTITCHASQNINVWLSWYQQKPGKVPKLLIYKASNLHTGVPSRFSGSGSGTDFTLTISSLQPEDVATYYCQQGYSYPYTFGGGTKLEIK
B2: HC1 × LC1 (antibody, V domains shown)
VH: QVQLVQSGAEVKKPGASVKVSCKASGFTFTDYALHWVRQAPGQRLEWMGLISTYYGDTTYNQRFKGRVTITRDTSASTAYMELSSLRSEDTAVYYCVITTVAGTDAMDYWGQGTLVTVSS
VL: DIQMTQSPSSVSASVGDRVTITCHASQNINVWLSWYQQKPGKAPKLLIYKASNLHTGVPSRFSGSGSGTDFTLTISSLQPEDFATYYCQQGYSYPYTFGGGTKLEIK
B3: HC2 × LC1 (antibody, V domains shown)
VH: QVQLVQSGSELKKPGASVKVSCKASGFTFTDYALHWVRQAPGQGLEWMGLISTYYGDTTYNQRFKGRFVFSLDTSVSTAYLQISSLKAEDTAVYYCVITTVAGTDAMDYWGQGTLVTVSS
VL: DIQMTQSPSSVSASVGDRVTITCHASQNINVWLSWYQQKPGKAPKLLIYKASNLHTGVPSRFSGSGSGTDFTLTISSLQPEDFATYYCQQGYSYPYTFGGGTKLEIK
B4: HC3 × LC2 (antibody, V domains shown)
VH: QVQLVQSGAEMKKPGASVKVACKGSGFTFTDYALHWVRQAPGQRLEWMGLISTYYGDTTYNQRFKGRVTITRDTSASTAYMELSSLRSEDTAIYYCVITTVAGTDAMDYWGQGTLVTVSS
VL: DIQMTQSPSSLSASVGDRVTITCHASQNINVWLSWYQQKPGKAPKLLIYKASNLHTGVPSRFSGSGSGTDFTFTISSLQPEDIATYYCQQGYSYPYTFGGGTKLEIK
B5: HC1 × LC3 (antibody, V domains shown)
VH: QVQLVQSGAEVKKPGASVKVSCKASGFTFTDYALHWVRQAPGQRLEWMGLISTYYGDTTYNQRFKGRVTITRDTSASTAYMELSSLRSEDTAVYYCVITTVAGTDAMDYWGQGTLVTVSS
VL: DIQMTQSPSSLSASVGDRVTITCHASQNINVWLSWYQQKPGKVPKLLIYKASNLHTGVPSRFSGSGSGTDFTLTISSLQPEDVATYYCQQGYSYPYTFGGGTKLEIK
B6: HC2 × LC3 (antibody, V domains shown)
VH: QVQLVQSGSELKKPGASVKVSCKASGFTFTDYALHWVRQAPGQGLEWMGLISTYYGDTTYNQRFKGRFVFSLDTSVSTAYLQISSLKAEDTAVYYCVITTVAGTDAMDYWGQGTLVTVSS
VL: DIQMTQSPSSLSASVGDRVTITCHASQNINVWLSWYQQKPGKVPKLLIYKASNLHTGVPSRFSGSGSGTDFTLTISSLQPEDVATYYCQQGYSYPYTFGGGTKLEIK
B7: HC1 × LC2 (antibody, V domains shown)
VH: QVQLVQSGAEVKKPGASVKVSCKASGFTFTDYALHWVRQAPGQRLEWMGLISTYYGDTTYNQRFKGRVTITRDTSASTAYMELSSLRSEDTAVYYCVITTVAGTDAMDYWGQGTLVTVSS
VL: DIQMTQSPSSLSASVGDRVTITCHASQNINVWLSWYQQKPGKAPKLLIYKASNLHTGVPSRFSGSGSGTDFTFTISSLQPEDIATYYCQQGYSYPYTFGGGTKLEIK
B8: HC2 × LC2 (antibody, V domains shown)
VH: QVQLVQSGSELKKPGASVKVSCKASGFTFTDYALHWVRQAPGQGLEWMGLISTYYGDTTYNQRFKGRFVFSLDTSVSTAYLQISSLKAEDTAVYYCVITTVAGTDAMDYWGQGTLVTVSS
VL: DIQMTQSPSSLSASVGDRVTITCHASQNINVWLSWYQQKPGKAPKLLIYKASNLHTGVPSRFSGSGSGTDFTFTISSLQPEDIATYYCQQGYSYPYTFGGGTKLEIK
B9: HC3 × LC1 (antibody, V domains shown)
VH: QVQLVQSGAEMKKPGASVKVACKGSGFTFTDYALHWVRQAPGQRLEWMGLISTYYGDTTYNQRFKGRVTITRDTSASTAYMELSSLRSEDTAIYYCVITTVAGTDAMDYWGQGTLVTVSS
VL: DIQMTQSPSSVSASVGDRVTITCHASQNINVWLSWYQQKPGKAPKLLIYKASNLHTGVPSRFSGSGSGTDFTLTISSLQPEDFATYYCQQGYSYPYTFGGGTKLEIK
B10: HC3.MMH × muLC (antibody, V domains shown)
VH: QVQLQQSGAEMVRPGVSVKIACKGSGFTFTDYALHWVKQSHAKSLEWIGLISTYYGDTTYNQRFKGRVTITRDTSASTAYMELSSLRSEDTAIYYCVITTVAGTDAMDYWGQGTLVTVSS
VL: DIQMNQSPSSLSASLGDTITITCHASQNINVWLSWYQQKPGNIPKLLIYKASNLHTGVPSRFSGSGSGTGFTLTISSLQPEDIATYYCQQGYSYPYTFGGGTKLEIK
B11: HC8 × LC2 (antibody, V domains shown)
VH: QVQLVQSGAEMKKPGASVKVSCKASGFTFTDYALHWVRQAPGQRLEWMGLISTYYGDTTYNQRFKGRVTMTVDKSSSTAYMELSSLRSEDTAIYYCVITTVAGTDAMDYWGQGTLVTVSS
VL: DIQMTQSPSSLSASVGDRVTITCHASQNINVWLSWYQQKPGKAPKLLIYKASNLHTGVPSRFSGSGSGTDFTFTISSLQPEDIATYYCQQGYSYPYTFGGGTKLEIK
B12: HC10 × LC2 (antibody, V domains shown)
VH: QVQLVQSGAEMKKPGASVKVACKGSGFTFTDYALHWVRQAPGQRLEWMGLISTYYGDTTYNQRFKGRVTITVDKSASTAYMELSSLRSEDTAIYYCVITTVAGTDAMDYWGQGTLVTVSS
VL: DIQMTQSPSSLSASVGDRVTITCHASQNINVWLSWYQQKPGKAPKLLIYKASNLHTGVPSRFSGSGSGTDFTFTISSLQPEDIATYYCQQGYSYPYTFGGGTKLEIK
B13: HC9 × LC2 (antibody, V domains shown)
VH: QVQLVQSGAEMKKPGASVKVACKGSGFTFTDYALHWVRQAPGQRLEWMGLISTYYGDTTYNQRFKGRVTMTVDKSASTAYMELSSLRSEDTAIYYCVITTVAGTDAMDYWGQGTLVTVSS
VL: DIQMTQSPSSLSASVGDRVTITCHASQNINVWLSWYQQKPGKAPKLLIYKASNLHTGVPSRFSGSGSGTDFTFTISSLQPEDIATYYCQQGYSYPYTFGGGTKLEIK
B14: HC7 × LC2 (antibody, V domains shown)
VH: QVQLVQSGAEVKKPGASVKVACKGSGFTFTDYALHWVRQAPGQRLEWMGLISTYYGDTTYNQRFKGRVTMTVDKSSSTAYMELSSLRSEDTAVYYCVITTVAGTDAMDYWGQGTLVTVSS
VL: DIQMTQSPSSLSASVGDRVTITCHASQNINVWLSWYQQKPGKAPKLLIYKASNLHTGVPSRFSGSGSGTDFTFTISSLQPEDIATYYCQQGYSYPYTFGGGTKLEIK
B15: HC15 × LC2 (antibody, V domains shown)
VH: QVQLVQSGAEVKKPGASVKVACKASGFTFTDYALHWVRQAPGQRLEWMGLISTYYGDTTYNQRFKGRVTMTADKSTSTAYMELSSLRSEDTAVYYCVITTVAGTDAMDYWGQGTLVTVSS
VL: DIQMTQSPSSLSASVGDRVTITCHASQNINVWLSWYQQKPGKAPKLLIYKASNLHTGVPSRFSGSGSGTDFTFTISSLQPEDIATYYCQQGYSYPYTFGGGTKLEIK
B16: HC13 × LC2 (antibody, V domains shown)
VH: QVQLVQSGAEVKKPGASVKVACKGSGFTFTDYALHWVRQAPGQRLEWMGLISTYYGDTTYNQRFKGRVTMTADKSSSTAYMELSSLRSEDTAVYYCVITTVAGTDAMDYWGQGTLVTVSS
VL: DIQMTQSPSSLSASVGDRVTITCHASQNINVWLSWYQQKPGKAPKLLIYKASNLHTGVPSRFSGSGSGTDFTFTISSLQPEDIATYYCQQGYSYPYTFGGGTKLEIK
B17: HC14 × LC2 (antibody, V domains shown)
VH: QVQLVQSGAEVKKPGASVKVSCKGSGFTFTDYALHWVRQAPGQRLEWMGLISTYYGDTTYNQRFKGRVTMTADKSTSTAYMELSSLRSEDTAVYYCVITTVAGTDAMDYWGQGTLVTVSS
VL: DIQMTQSPSSLSASVGDRVTITCHASQNINVWLSWYQQKPGKAPKLLIYKASNLHTGVPSRFSGSGSGTDFTFTISSLQPEDIATYYCQQGYSYPYTFGGGTKLEIK
B18: HC12 × LC2 (antibody, V domains shown)
VH: QVQLVQSGAEVKKPGASVKVACKGSGFTFTDYALHWVRQAPGQRLEWMGLISTYYGDTTYNQRFKGRVTMTVDKSTSTAYMELSSLRSEDTAVYYCVITTVAGTDAMDYWGQGTLVTVSS
VL: DIQMTQSPSSLSASVGDRVTITCHASQNINVWLSWYQQKPGKAPKLLIYKASNLHTGVPSRFSGSGSGTDFTFTISSLQPEDIATYYCQQGYSYPYTFGGGTKLEIK
B19: HC11 × LC2 (antibody, V domains shown)
VH: QVQLVQSGAEVKKPGASVKVACKGSGFTFTDYALHWVRQAPGQRLEWMGLISTYYGDTTYNQRFKGRVTMTADKSTSTAYMELSSLRSEDTAVYYCVITTVAGTDAMDYWGQGTLVTVSS
VL: DIQMTQSPSSLSASVGDRVTITCHASQNINVWLSWYQQKPGKAPKLLIYKASNLHTGVPSRFSGSGSGTDFTFTISSLQPEDIATYYCQQGYSYPYTFGGGTKLEIK

target: T1, human IL3; test: cell-based or functional assay

Compared with B1, B2 is lower in “Inhibitory activity (block of IL-3 induced downregulation of CD131 on primary human basophils; chimeric P8C11 normalized to 100%)” value: 6% for the first, 2% for the second.

Compared with B3, B4 is higher in “Inhibitory activity (block of IL-3 induced downregulation of CD131 on primary human basophils; chimeric P8C11 normalized to 100%)” value: 0.5% for the first, 6% for the second.

First: B5
Second: B6
The “Inhibitory activity (block of IL-3 induced downregulation of CD131 on primary human basophils; chimeric P8C11 normalized to 100%)” value of the first is higher: 2% for the first, 0.5% for the second.

First: B7
Second: B8
The “Inhibitory activity (block of IL-3 induced downregulation of CD131 on primary human basophils; chimeric P8C11 normalized to 100%)” value of the first is higher: 2% for the first, 0.5% for the second.

With B9 the “Inhibitory activity (block of IL-3 induced downregulation of CD131 on primary human basophils; chimeric P8C11 normalized to 100%)” value was 6%.

target: T1, human IL3; test: cell-based or functional assay; remark: another data set of the same source

B10 was tested, and the “Inhibitory activity (block of IL-3 induced downregulation of CD131 on primary human basophils; chimeric P8C11 normalized to 100%)” value was 4%.

target: T1, human IL3; test: cell-based or functional assay; remark: another data set of the same source

First: B11
Second: B12
The “Inhibitory activity (block of IL-3 induced downregulation of CD131 on primary human basophils; chimeric P8C11 normalized to 100%)” value of the first is lower: 25% for the first, 40% for the second.

Compared with B13, B14 is higher in “Inhibitory activity (block of IL-3 induced downregulation of CD131 on primary human basophils; chimeric P8C11 normalized to 100%)” value: 50% for the first, 100% for the second.

target: T1, human IL3; test: cell-based or functional assay; remark: another data set of the same source

Going from B15 to B16, the “Inhibitory activity (block of IL-3 induced downregulation of CD131 on primary human basophils; chimeric P8C11 normalized to 100%)” value rises from 8% to 25%.

Going from B17 to B18, the “Inhibitory activity (block of IL-3 induced downregulation of CD131 on primary human basophils; chimeric P8C11 normalized to 100%)” value rises from 25% to 100%.

In the case of B19, the “Inhibitory activity (block of IL-3 induced downregulation of CD131 on primary human basophils; chimeric P8C11 normalized to 100%)” value is reported as 25%.
